The text below walks through data of patent US20220174981A1, “PROLINE TOLERANT TRIPEPTIDYL PEPTIDASES AND USES THEREOF” (DuPont Nutrition Biosciences APS, priority 2014, published 2022).

One data set concerns AAF-pNA. Briefly: Residual activity on AAF-pNA after in vitro digestion with pepsin and pancreatin. It counts as biochemical. Here is the method:
In order to test the stability of TRI045 under the in vitro assay conditions described above (incubation in the presence of pepsin at pH3 for 45 min at 40° C. and subsequently in the presence of pancreatin for 60 min at 40° C.). The residual activity of TRI045 was subsequently assayed. The reaction mixture contained 50 μl buffer 0.1M HAC-NaAC (pH5.0), 10 μl the supernatant, and 5 μl AAF-pNA (5 mg/ml in DMSO). The reaction rate was followed at 410 nm and 30° C. every 30 seconds using a microplate reader. As a control, a commercial protease at the same concentration of 1000 ppm was used.

Data set [1] is described as follows: Stability of TRI045 in the presence of pepsin. It counts as biochemical, Swine. The following applies: 500 units pepsin/mL, pH3.5, 40° C., 60 min. Here is the method:
Pepsin solution: Swine pepsin from Sigma (P7000, 674 Sigma units/mg, www.sigma.com) was used in this example and prepared in MilliQ water at 10000 Sigma unit/ml at 10000 Sigma unit/mL
Pre-incubation mixture contained: 2.5 μl TRI045 sample, 95 μl GAT buffer (50 mM glycine-50 mM acetic acid-50 mM Tris, pH3.5), 5 μl pepsin in milliQ water (10000 Sigma unit/ml) (final pepsin unit concentration: 500 Sigma unit/ml reaction mixture) in a half bottom area 96 well Corning MTP. For control, the pre-incubation mixture contained 5 μl water instead of 5 μl pepsin. The mixture was incubated at 40° C. for 60 min and then kept on ice. For assaying the residual activity, the assay mixture contained the pre-incubation mixture 5 μl, 0.1M acetic acid-sodium acetate (pH4.0) 85 μl, 5 μl H-Ala-Ala-Phe-pNA (2.5 mg/ml) from BACHEM.com (L-1095.0250). The 410 nm reading was followed in a microplate reader every 0.5 min at 30° C. N=2.

A further data set has as its system corn soy feed. The data set is described as follows: TRI045 plus pepsin and pancreatin on corn soy feed, OPA and BCA assays. It counts as biochemical. The following applies: TRI045 1000 ppm, swine pepsin and pancreatin present. Here is the method:
The in vitro reaction system contained 140 μl 10% (w/v) corn soy feed slurry (14 mg corn soy feed), 10 μl TRI045 in 50m M MES-NaOH pH 6.0, 10 μl swine pepsin (1.14 U/μL in water). The reaction was incubated with shaking at 40° C. for 45 min and subsequently 34 μl swine pancreatin (0.4636 mg/mL in 1M Na-bicarbonate) were added and further incubated for additional 60 min. After incubation, the 96-well plate was centrifuged and supernatants were used for residual TRI045 activity assay and for OPA and BCA assays (see below).
Reference: P. M. Nielsen, D. Petersen and C. Dambmann. Improved Method for Determining Food Protein Degree of Hydrolysis. Journal of Food Science. 66 (2001) 642-646.
For OPA assay the following procedure was carried out.
To quantify the protein concentrations of each protease samples, the Pierce BCA Protein Assay Reagent Kit (Thermo Scientific, cat no. 23228) was used. The TRI045 sample was not purified before quantification. The Pierce BCA Protein Assay Kit is a detergent-compatible formulation based on bicinchoninic acid (BCA) for colorimetric detection and quantification of total proteins. This method combines the well-known reduction of Cu^2+ to Cu^1+ by protein in an alkaline medium with the highly sensitive and selective colorimetric detection of the cuprous cat ion (Cu^+1) using a unique reagent containing bicinchoninic acid. […]

A further data set has as its system H-Ala-Ala-Ala-pNA. Briefly: Exopeptidase Broad-Specificity Assay (EBSA) with H-Ala-Ala-Ala-pNA; pH and temperature profile. It counts as biochemical. The following applies: H-Ala-Ala-Ala-pNA; 20 mM Na-glycine pH 2.0-4.0 or Na-acetate pH 4.0-5.5. Here is the method:
10 μL of the chromogenic peptide solution (10 mM H-Ala-Ala-Ala-pNA dissolved in dimethyl sulfoxide (DMSO); MW=387.82; Bachem, Switzerland) were added to 130 μl Na-acetate (20 mM, adjusted to pH 4.0 with acetic acid) in a microtiter plate and heated for 5 minutes at 40° C. 10 μL of appropriately diluted enzyme was added and the absorption was measured in a MTP reader (Versa max, Molecular Devices, Denmark) at 405 nm. One katal of proteolytic activity was defined as the amount of enzyme required to release 1 mole of p-nitroaniline per second.
The chromogenic peptide H-Ala-Ala-Ala-pNA (MW=387.82; Bachem, Switzerland) was used to determine the activity of proline tolerant tripeptidyl peptidase in the samples produced as described above. The assay was conducted as follows, 10 μL of the chromogenic peptide solution (10 mM dissolved in dimethyl sulfoxide; DMSO) were added to 130 μl Na-acetate (20 mM, adjusted to pH 4.0 with acetic acid) in a microtiter plate and heated for 5 minutes at 40° C. 10 μL of appropriately diluted enzyme was added and the absorption was measured in an MTP reader (Versa max, Molecular Devices, Denmark) at 405 nm. One katal of proteolytic activity was defined as the amount of enzyme required to release 1 mole of p-nitroaniline per second.
The proline tolerant tripeptidyl peptidase assay described with H-Ala-Ala-Ala-pNA substrate above with modification of using the buffers 20 mM Na-glycine (pH 2.0, 2.5, 3.0, 3.5 and 4.0) or 20 mM Na-acetate buffer (pH 4.0, 4.5 and 5.5) was used to determine the pH profile of proline tolerant tripeptidyl peptidase TRI083 (FIG. 2) and TRI045 (FIG. 24)..
The proline tolerant tripeptidyl peptidase assay described above was used at temperatures 25, 50, 55, 60, 65, 70, 75, 80 and 85° C.
For proline tolerant tripeptidyl peptidase the chromogenic peptide H-Ala-Ala-Ala-pNA was used. The assay was conducted as follows, 27.5 μL of appropriately diluted enzyme was added to 200 μl McIlvaine buffer (20 mM, pH 4.0). After incubation at 50° C. for 5 min, 12.5 μL of the chromogenic peptide solution (5 mg/mL dissolved in dimethyl sulfoxide (DMSO); Sigma-Aldrich, Denmark) were added to the reaction mixture. The reaction was terminated by adding 50 μL of 0.5 M trichloroacetic acid (TCA; Sigma-Aldrich, Denmark). After centrifugation (15,000×g, 5 min), 240 μL of the solution were transferred to a microtiter plate (MTP; Kisker-biotech, Germany) and the absorption was measured in an MTP reader (Molecular Devices, Denmark) at 405 nm. One katal of proteolytic activity was defined as the amount of enzyme required to release 1 mol of p-nitroaniline per second.

The test system of another data set is H-Ala-Ala-Phe-pNA. The data set is described as follows: Effect of pH on TRI045 activity with H-Ala-Ala-Phe-pNA. Type of data set: biochemical. How it is done: The tripeptide substrate H-Ala-Ala-Phe-pNA (AAF-pNA from BACHEM.com, L-1095.0250) for sedolisin was prepared at 2.5 mg/ml in DMSO. The reaction was prepared by mixing 8.5 μl AAF-pNA, 7 μl DMSO, 32 μl water and 50 μl buffer with pH4.14-6.57, and 0.8 μl or 1.5 ul TRI045. The reaction was started at 30° C. by the addition of the enzyme TRI045. The initial reaction rate was recorded using a microplate reader at every 0.5 min interval at 410 nm in 96 well plate.

B1: TRI045: tripeptidyl peptidase having pre-pro sequence SEQ ID No. 98 and mature protein SEQ ID No. 99 (protein, listed as Arthroderma benhamiae)
chain: CRSLVTTACLRELYGLGDRVTQARDDNRIGVSGFLEEYAQYRDLELFLSRFEPSAKGFNFSEGLIAGGKNTQGGPGSSTEANLDMQYVVGLSHKAKVTYYSTAGRGPLIPDLSQPSQASNNNEPYLEQLRYLVKLPKNQLPSVLTTSYGDTEQSLPASYTKATCDLFAQLGTMGVSVIFSSGDTGPGSSCQTNDGKNATRFNPIYPASCPFVTSIGGTVGTGPERAVSFSSGGFSDRFPRPQYQDNAVKDYLKILGNQWSGLFDPNGRAFPDIAAQGSNYAVYDKGRMTGVSGTSASAPAMAAIIAQLNDFRLAKGSPVLGFLNPWIYSKGFSGFTDIVDGGSRGCTGYDIYSGLKAKKVPYASWNATKGWDPVTGFGTPNFQALTKVLP
In the case of B1, the “time stable to pepsin and pancreatin” value with AAF-pNA (40° C.) is recorded as “at least 100 minutes”. In the data set with AAF-pNA (1000 ppm, after pepsin 45 min and pancreatin 60 min at 40° C., control 4.3 mOD/min), this molecule had a reaction rate of 19.3 mOD/min. For the same molecule, the “stability to pepsin and pancreatin in the presence of corn soy feed” value in the data set on AAF-pNA (105 min at 40° C., pH range of 3 to 7) was “stable to pepsin and pancreatin”. In the data set with AAF-pNA (after subtraction of the control (4.3 mOD/min)), the “residual activity on AAF-pNA relative to the commercial protease” value amounted to 2.2 times. Further, in data set [1], the residual activity result was “over 90%”. Besides, the “increase of release of free amino groups from corn soy feed (OPA value)” value in the data set on corn soy feed is on record as 9%. The “increase of protein solubility” value in the data set on corn soy feed (BCA) was 5%. In the data set with H-Ala-Ala-Ala-pNA, the “Optimum pH” value is given as 4.0. In addition, the “activity at around pH4 and pH6.5” value in the data set with H-Ala-Ala-Phe-pNA (AAF-pNA, 30° C.) was “around 50%”. Besides, the “Relative activity with pH 5.01 as 100%” value worked out at 59.4% in the data set with H-Ala-Ala-Phe-pNA (pH 4.1, 0.1M HAC-NaAC); 81.7% with H-Ala-Ala-Phe-pNA (pH 4.6, 0.1M HAC-NaAC); 100.0% in the data set with H-Ala-Ala-Phe-pNA (pH 5.0, 0.1M HAC-NaAC); 80.7% in the data set with H-Ala-Ala-Phe-pNA (pH 5.6, 0.1M HAC-NaAC); 72.2% with H-Ala-Ala-Phe-pNA (pH 6.0, 0.1M Mes-NaOH); 48.5% in the data set on H-Ala-Ala-Phe-pNA (pH 6.6, 0.1M Mes-NaOH).
